Measurements taken from patent CN109897110A (SHENZHEN BGI LIFE SCIENCE RES INSTITUTE, dated 2019).

Target: T1, 人PCSK9抗原多肽 (前蛋白转化酶枯草溶菌素9, PCSK9) (human, UniProt Q8NBP7 31-692, limits assumed)
T1 construct: Expressed in CHO cells; also called PCSK9蛋白; Proprotein convertase subtilisin/kexin type 9
Assay: ProteOn (SPR), PCSK9 immobilised on chip, nanobody dilution series as analyte

T1 sequence (Q8NBP7 31-692 limits assumed): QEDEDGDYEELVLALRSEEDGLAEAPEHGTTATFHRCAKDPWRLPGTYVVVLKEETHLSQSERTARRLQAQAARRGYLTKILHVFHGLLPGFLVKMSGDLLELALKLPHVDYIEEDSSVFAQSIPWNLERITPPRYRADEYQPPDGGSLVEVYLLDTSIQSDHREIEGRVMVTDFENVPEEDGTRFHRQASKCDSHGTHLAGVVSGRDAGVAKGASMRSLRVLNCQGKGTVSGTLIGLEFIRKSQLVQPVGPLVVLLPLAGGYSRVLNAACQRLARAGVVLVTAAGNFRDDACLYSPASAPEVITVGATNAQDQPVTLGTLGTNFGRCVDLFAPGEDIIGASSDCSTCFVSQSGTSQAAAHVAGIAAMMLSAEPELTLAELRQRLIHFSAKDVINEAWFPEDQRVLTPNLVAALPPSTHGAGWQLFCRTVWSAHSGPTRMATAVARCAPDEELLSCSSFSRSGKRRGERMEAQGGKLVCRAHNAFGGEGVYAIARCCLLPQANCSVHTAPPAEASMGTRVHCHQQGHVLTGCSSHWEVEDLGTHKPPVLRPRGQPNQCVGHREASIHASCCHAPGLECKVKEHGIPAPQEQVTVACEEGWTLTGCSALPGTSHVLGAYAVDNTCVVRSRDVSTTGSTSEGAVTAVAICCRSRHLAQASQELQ

Kd: 25 nM | koff: 0.000112 s⁻¹ | kon: 4490 M⁻¹ s⁻¹
B1: PCSK9纳米抗体 (VHH)
VHH: ESGGGSVQAGGSLRLSCTVSGYTYSSNCMGWFRQAPGKEHEGVASIYIGGGSTYYADSVKGRFTISQDNAKNTVYLQMNSLKPEDTAMYYCAVGCQGLVDFGYWDQGTQVTVSS
notes: Expressed from pMECS in E. coli HB2151 and purified on a Ni column; also called PCSK9 Nb; PCSK9 nanobody; not shown: tags from the pMECS vector (HA tag detected with anti-HA antibody); purified on a
